Assay results as given in US20200407442A1 (WUXI BIOLOGICS IRELAND, published 2020).

T1: Variant 2: xPro1.FL-x2 (human; mouse)
T1 construct: Chimeric full-length LAG-3 on transfected 293F cells
T1 chain: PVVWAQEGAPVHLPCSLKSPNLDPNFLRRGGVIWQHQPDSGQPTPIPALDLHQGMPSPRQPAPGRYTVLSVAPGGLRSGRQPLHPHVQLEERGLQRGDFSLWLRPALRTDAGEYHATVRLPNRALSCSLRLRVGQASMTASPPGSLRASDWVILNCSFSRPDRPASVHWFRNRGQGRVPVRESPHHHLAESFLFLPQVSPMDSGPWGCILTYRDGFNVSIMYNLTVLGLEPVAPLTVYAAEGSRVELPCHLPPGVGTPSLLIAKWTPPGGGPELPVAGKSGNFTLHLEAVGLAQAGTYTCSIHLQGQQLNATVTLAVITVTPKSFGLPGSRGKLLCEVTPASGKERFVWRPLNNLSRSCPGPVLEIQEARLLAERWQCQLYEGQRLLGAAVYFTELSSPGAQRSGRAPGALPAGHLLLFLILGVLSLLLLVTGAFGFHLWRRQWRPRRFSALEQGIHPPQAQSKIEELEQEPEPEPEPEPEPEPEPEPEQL

T2: Variant 10: xPro1.FL-x10 (human; mouse)
T2 construct: Chimeric full-length LAG-3 on transfected 293F cells
T2 chain: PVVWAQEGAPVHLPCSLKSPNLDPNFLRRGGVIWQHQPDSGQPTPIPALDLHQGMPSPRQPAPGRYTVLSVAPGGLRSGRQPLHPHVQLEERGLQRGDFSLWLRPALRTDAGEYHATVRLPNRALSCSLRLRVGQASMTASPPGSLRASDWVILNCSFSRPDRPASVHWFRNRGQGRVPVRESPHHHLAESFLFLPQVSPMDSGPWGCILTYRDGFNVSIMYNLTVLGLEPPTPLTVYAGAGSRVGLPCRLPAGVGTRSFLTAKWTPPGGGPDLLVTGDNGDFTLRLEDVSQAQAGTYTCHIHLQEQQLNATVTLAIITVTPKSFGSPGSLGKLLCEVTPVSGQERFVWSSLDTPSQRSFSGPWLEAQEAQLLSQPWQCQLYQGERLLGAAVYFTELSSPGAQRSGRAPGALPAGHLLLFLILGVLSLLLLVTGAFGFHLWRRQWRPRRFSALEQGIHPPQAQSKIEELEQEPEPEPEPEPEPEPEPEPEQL

T3: human LAG-3-ECD.D12.mFc mutant V61A (human, UniProt P18627 37-252)
T3 construct: Alanine scanning mutant; construct limits as for m26
T3 chain: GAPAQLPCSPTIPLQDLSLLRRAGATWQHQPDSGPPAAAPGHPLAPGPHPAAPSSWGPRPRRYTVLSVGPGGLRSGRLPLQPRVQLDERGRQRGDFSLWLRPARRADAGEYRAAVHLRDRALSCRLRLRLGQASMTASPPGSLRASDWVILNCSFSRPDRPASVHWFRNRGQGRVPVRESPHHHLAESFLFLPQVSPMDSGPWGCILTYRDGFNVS

T4: full-length human LAG-3 on cells (human, UniProt P18627 23-525)
T4 construct: Expressed on Flp-In-293, CHO or 293F transfectants; also called hPro1.FL; cell surface human LAG-3
T4 sequence: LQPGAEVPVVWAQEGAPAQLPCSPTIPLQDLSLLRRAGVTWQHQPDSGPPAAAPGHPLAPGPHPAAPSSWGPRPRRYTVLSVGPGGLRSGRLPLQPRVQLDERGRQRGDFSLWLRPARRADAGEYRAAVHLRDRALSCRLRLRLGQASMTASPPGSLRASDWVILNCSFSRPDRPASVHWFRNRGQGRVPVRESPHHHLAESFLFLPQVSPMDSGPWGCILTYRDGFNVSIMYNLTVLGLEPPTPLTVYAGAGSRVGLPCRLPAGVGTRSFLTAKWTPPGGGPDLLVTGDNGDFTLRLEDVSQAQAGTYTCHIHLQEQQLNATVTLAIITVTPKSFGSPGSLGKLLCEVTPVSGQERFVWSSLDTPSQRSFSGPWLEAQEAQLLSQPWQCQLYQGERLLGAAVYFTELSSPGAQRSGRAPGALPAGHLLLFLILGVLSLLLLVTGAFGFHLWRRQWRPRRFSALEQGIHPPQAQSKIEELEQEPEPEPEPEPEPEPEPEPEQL


Columns and labels:
Variant 2: xPro1.FL-x2 = biological target: T1, Variant 2: xPro1.FL-x2; assay: FACS, 1 ug/mL antibody, transfected 293F cells
Procedure: (§1) The 10 variants were cloned into pcDNA3 vector and used for 293F cell transfection. Briefly, 293F cells were diluted to a density of 1×10⁶ cells/mL with FreeStyle 293F medium and aliquots of 3 mL/well were added to 24-well plate. Transfections were performed using 293fectin reagent (Life Technologies). For each transfection, 3 μg of DNA were diluted in 150 μOpti-MEM I-reduced serum medium (Life Technologies), and then combined with 6μL 293fectin reagent pre-diluted in 150 μL Opti-MEM I reduced serum medium. The DNA/[…] mixture was allowed to stand at 25° C. for 20 min before being added to the culture. The transfected cells were analyzed by flow cytometry at 48 h post-transfection.
(§2) Binding of antibodies to chimeric LAG-3 variants or full length human/mouse LAG-3 was analyzed by flow cytometry. Briefly, 1 μg/mL antibodies were incubated with chimeric LAG-3-expressing transfected 293F cells for 1 hour at 4° C., and then incubated with 3 μg/mL goat anti-human IgG Fc R-PE (Jackson) for 40 min at 4° C. Cells were analyzed with flow cytometer.

Variant 10: xPro1.FL-x10 = biological target: T2, Variant 10: xPro1.FL-x10; assay: FACS, 1 ug/mL antibody, transfected 293F cells
Procedure: as §1, §2

[1] = biological target: T3, human LAG-3-ECD.D12.mFc mutant V61A; assay: ELISA, antibody coated, LAG-3 D12.mFc mutant in supernatant, normalised to control mutants
Procedure: For ELISA binding assay, the antibody 1.53.3-uAb-IgG4k or 3.40.19-uAb-hIgG4L (2 μg/mL) was coated in plates. After interacting with the supernatant that contains quantified LAG-3 mutants or human LAG-3-ECD.D12.mFc protein, HRP conjugated anti-mFc antibody (1:5000; Bethyl, USA) was added as a detection antibody. Absorbance was normalized according to the average absorbance of control mutants. After setting an additional cutoff to the binding fold change (<0.75), the final determined epitope residues were identified.

[2] = biological target: T4, full-length human LAG-3 on cells; assay: FACS on human LAG-3 transfectant cells after incubation of the antibody in human serum at 37 C, PE-labeled goat anti-human IgG, MFI
Procedure: The lead Abs were incubated in freshly isolated human serum (serum content>95%) at 37° C. On indicated time points, an aliquot of serum treated sample was removed from the incubator and snap frozen in liquid N₂, and then stored at −80° C. until ready for test. The samples were quickly thawed immediately prior to the stability test. Human LAG-3 transfectant cells were incubated with various concentrations of lead antibodies at 4° C. for 1 hour. PE-labeled goat anti-human IgG was used to detect the binding of lead antibodies onto the cells. MFI of the cells was measured by a flow cytometer (BD FACSCanto II) and analyzed by FlowJo.

Binder | MFI (Variant 2: xPro1.FL-x2) | PE+ % (Variant 2: xPro1.FL-x2) | MFI (Variant 10: xPro1.FL-x10) | PE+ % (Variant 10: xPro1.FL-x10) | Fold Change [1] | EC50 (read off the curve) [2]
1.53.3-uAb-IgG4k (antibody, V domains shown, Fully human antibody from OMT rats; IgG4 kappa by its name) VH: QVQLQQWGAGLLKPSETLSLTCGVYGGSFSGYYWSWIRQPPGMGLEWIGEINHRGNTNYNPSLKSRVTISEDTSKNQFSLRLSSVTAADTAVYFCTRGEDYSDYDYYGDFWGQGTLVTVSS VL: EIVLTQSPATLSLSQGERATLSCRASQSISSYLAWYQQKPGQAPRLLIYAASNRATGIPARFSGSGSGTDFTLTISSLEPEDFAIYYCQQRSNWPLTFGGGTKVEIK | 45 | 1.77% | 42.3 | 1.98% | 0.637 | ~3 nM
3.40.19-uAb-IgG4L (antibody, V domains shown, Fully human antibody from OMT rats; IgG4 lambda by its name; also called 3.40.19-uAb-hIgG4L) VH: QLQLQESGPGLVKPSETLSLTCTVSGDSISSTSYYWGWIRQPPGKGLEWIGSFYYSGSTYYNPSLKSRVTISVDTSKNQFSLKLNSVTAADTAVYYCARMQLWSYDVDVWGQGTTVTVSS VL: QSALTQPASVSGSPGQSITISCTGTSSDVGGYDYVAWYQQHPGKVPKLMIYDVSERPSGVSNRFSGSKSGNTASLTISGLQAEDEADYYCSSYTSTTTLVVFGGGTKLSVL | 40.6 | 0.305% | 68.5 | 0.988% | 0.514 | ~0.8 nM
